Laboratory results reported in a protein production outcome set (Wang et al. 2014).

experiment: label from the status in PepcDB records
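Also: failed if final PepcDB status was selected cloned or expressed and not failed if soluble or beyond.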

Row | Sequence | protein production
1 | MGTNKQTALLPTVNQAITDGAVFGVSYSLLGPQENALHVIGYQGAGDDRLPLLPQARYDLASLTKVVGTTTRLLQLLIAGKLELTQPIGSLVSGLRYPQLTIEQLMLHRSGLPADVPDAHALDQAGLVHAVKTMAAVAAPDTETIYSDLNYIILGWAIAALDGDLATSLTQHIFAPLGMHATGYRPQHVAAADFVPTENVPARGGIIRGTVHDHKAFLLDGVSGHAGLFATLADLTIFTRLLAGLPVTNGDHVLPPAAFVLLDRFCKGGRTLGWRCWAQGRHQYWHTGFTGTSIAFDRDTQCGFVCLTNRIYPSRANRAWLAVRRQLLTQFFEVATSWPD | failed
2 | MGTQRSDTRDQSARLMRRATYASVTVAMTLVVAKLVAWVLTDSVALLSTLIDSLIDVGASLVTLLAVREALTPADEEHRFGHGKAEPLAGLGQAAFIAGSGIFLVIEAAGRLTAPLPVQRGEIGIAVMVFSILATIGLVAYQRRVIAQTKSVAISADSLHYAGDLLINLSVIVSLGLAMTVDLPILDPLFAIAIALWLMKNAWTIGANSVNLLMDRELPPEDRVRIIKLALENPRVFDIHDLRTRSSGPQTFIQLNVELDGEMTLSASHAIVTEIENRLRAAFPGAEVLIHQDPAGIQEDHHPDFAYEDTSALLEADAASQPRRL | failed
3 | MGTRRRRGRKAIAGLPGYLLLLVLVLVWLFQELRPGPVPPAETGEAEVYFMPEEGPRAKARLLALMDGARESLEGAFYEFRDLEVAQGLLRAKARGVRVRLYGESDYREDFRRYLVAASLGQREEPPRVRFAELKERVKPLSLDCEEVVGIPICYDEREGFMHHKFLVVDGRAVWTGSTNMTWNAFARNNENSLLLPSPTLAQGYAREFEALFGGQKEGLGQPVAFALEGVEGVAYFSPRGGRLAREALLKRLSEAQREVLVAAFVLTDREVLEALLQARRRGAEVKVLLETRNLGTSREEALLEEGLEVRQDANPYTMHHKVMLLDGTYVVTGSYNFSVRAHEVNNENLLVLKSPSLAERYRKEVLRLWEAGSPL | failed
4 | MGTRWFAKNTTMSKNSIVIGVDLDGVCADFYGRMRQIASEWFERPIDELPEEVSWGLSEWGITNPSQYDSLHRFAVTQRELFSSMEAIPGARKYLRQLSDEGFRIRIITHRLFIHYFHATAVQQTVNWLDSHGIPYWDLCFVKEKTQVGADIYIEDSPENVAQLRGRGLFTICFGNSTNRHIEELRAASWQDVYDMIKAFVT | failed
5 | MGTYRKRFNEKARSGHMAKLKELKRIRNKQFTRQDENDERVENPDSAPAESSTTEPNANAEILEPLTEEEKKMKKRKLQELFTPKESKVSRLKKKRLDKFIEHQLKREERKTIIGKLQDYKIDTSLLTSSKRLGEGRQTKKEEFKEALSLERQGRGNEQTNEILYEEYEPKVWDEYGEGGSSEDDDGEDDFEASFGSMPKPTDNEEKKSSGFIDHRPAKFGGSGLSFGFSNIKVINKESKTPKKKYNWRQRVEMEELKKHGKEDEMDFDTTSEDDDEEEDQEEEDKMHPSENPLEEVESADSETGSEKFDQNDVANEFKDWANQEIKKLEGRDQELVTPTLNIDYKPIIRKEDLDDGLQEAYVPINENSTRKAFYVEVSRSDEIQKARIQLPVFGEEHKIMEAIHHNDVVIICGETGSGKTTQVPQFLYEAGFGAEDSPDYPGMVGITQPRRVAAVSMAERVANELGDHGHKVGYQIRFDSTAKEDTKVKFMTDGVLLREMMHDFKLTKYSSIIIDEAHERNINTDILIGMLSRCVRLRAKLHKENPIEHKKLKLIIMSATLRVSDFSENKTLFPIAPPVLQVDARQFPVSIHFNRRTAFNYTDEAFRKTCKIHQKLPPGAILVFLTGQQEITHMVKRLRKEFPFKKNSKYNKDLETPVSKMGINSKTTDLEAEDIDFSVQVIDQDKFKSAIRYEEDEGNSGNGEDEEDEEEEGFEEVLTEGQTANDPLYVLPLYSLLPTKEQMRVFQKPPQGSRLCIVATNVAETSLTIPGVRYVVDSGRSKERKYNESNGVQSFEVGWVSKASANQRSGRAGRTGPGHCYRLYSSAVFEHDFEQFSKPEILRMPVESIVLQMKSMAIHNIINFPFPTPPDRVALSKAIQLLQYLGALDNKEMITEDGKKMSLFPLSPRFSKMLLVSDEKACLPYIVAIVSALSVGDPFINEFELGINEISRKPNPDENLDDKIREHDESTPGMDPELKKELRSKFYKSRSQFSKLDKFSDVFRLLSVVSAMDYVPKEQKEIFMKKNFLRGKLMEEIVKLRKQLMYIIKSNTSKENIAVVIRNEDLKSDIPSVIQIKLLKQMICAGFVDHVAVRADVLFPDDAKITNRTSIINIPYIPVLATRTPNIEDCFVYIHPTSILNNLGEMPPKYMLYYSLHLGGNNKTRMNTLCDIASTPLANIARKGLLLTYSKPLTGQGLKTVNLSPTERYCYVVPRFGSTVDNDLKIGWDLNPIAVHQKKQKGQWTVIKFITRKGFQTITGEEKEKK | failed
6 | MGVALLLLVGGAELLVRSALRLAQRLHVRPLIIGLSLVAFGSTAPQLTVSLQAAYQGAPDVAVGSVIGSNIFNVLVILGLAALIIPLRVSRQLVRLDIPLMILASGLVYALSANAHLGRVEGALLLLGLAGYLAMLWHQSRHYARTYPAPDAARSGAGRFWSGTLLQILVGLGLLSLAGHLLLEAAIEVATDLGLSERIIGLTVVAICTSLPELAAALIAALRGEREIAVGTVIGSNLFNLLAVLGLTALITPEPLSISPNALSFDLPVMLGVAALSLPVFYSGYRITRAEGLVFLCLYLAYGLHVAAFTMGMPLAGRLERLMLFYVLPVLATVLLYTTVRAWRRQH | failed
7 | MGVKFTLMGTTAGLGVPAFHCNCIACREARADPFWARTRSGAVLETGKENILIDASPDLSKQLLRERIQSVDYLFVTHWHYDHFGGIGDLEYYVKLERKWPVALFLPPSAVDDFAKVYPFLEEVFVIEPWEFGKSYAFEGIELTVLPARHSIETGGILLAGSKRAAYFTDTAGLPAPTARQLQGVDTLICDATFNGANWFPHSHMNWQEAIALGESIRAQHTVLTHLAMHYSTPITAAQLQEKLKDYAQVSLAYDGMVLTI | failed
8 | MGVLRVGLCPGLTEEMIQLLRSHRIKTVVDLVSADLEEVAQKCGLSYKALVALRRVLLAQFSAFPVNGADLYEELKTSTAILSTGIGSLDKLLDAGLYTGEVTEIVGGPGSGKTQVCLCMAANVAHGLQQNVLYVDSNGGLTASRLLQLLQAKTQDEEEQAEALRRIQVVHAFDIFQMLDVLQELRGTVAQQVTGSSGTVKVVVVDSVTAVVSPLLGGQQREGLALMMQLARELKTLARDLGMAVVVTNHITRDRDSGRLKPALGRSWSFVPSTRILLDTIEGAGASGGRRMACLAKSSRQPTGFQEMVDIGTWGTSEQSATLQGDQT | failed
9 | MGVPEINEYGQQVNDLVPGWQGAQVLRRTALNGRFCRLEPLDVDRHAADLFAAYALGDNSDWTWLASTRPESVTATAHWIAGKVNDDVLVPYAVVDLRSEQAVGIVSYMAIEREMGTVEIGHVTWSRRMKNTPLGTEAVWLLLKNGFDHGYRRLEWKCDSMNVASRRAAERLGFSWEGRLRQRLVRKGRTRDSDMLSIIDGEWPARDAALRAWLAAENFTADGQQIKRLEAFR | failed
10 | MGVSFKISKVGRKFRPKISTELATPDSPKAIVLSGKPKATDDSNIGDVSGFSKPSLPDISPDHEVSFILSLYPNGYSIGKTSEAMQQISFRDVPKVLHPYDRAAEGLLSAIEAGRLPGDILEDIPCKFVDGVVICEVHDYRKHTSSQVSPVINKLRLKMSLENVVKDIPSMSDNSWTYGDLMVIMVARGL | failed
11 | MGVTLAKGGNVSLSKAAPNLTQVLVGLGWDARSTTGAPFDLDASALVCSSGRVLGDEWFVFYNQLKSPDGSIEHTGDNLTGEGDGDDESLLVDLSKVPAHCDKIVFPVSIHMADERGQTFGQVSNAFIRVVNQADGQELARYDLSEDASTETAMIFGELYRYQGEWKFRAVGQGYASGLRGIALDFGVNVS | not failed
12 | MGVTLEGQRKESIWVLMRRQRARRALVKKIMIRPRKSVEASRRPCRAIHRRVKTLKELVPNTKTSEGLDGLFRQTADYILALEMKVKVMQTMVQVLTETNCV | failed
13 | MGWEFFSLETLQELARQYGYGAVFFGIALENAGIPIPGETITLLGGFLAGSGDLSYGGVLIAAIAGAVLGDSCGYWVGRWGGWPLLTRAAQLFNIPQEKLDQARHKFSQNGAAAVFFGRFVTLLRIFAGPMAGIVRMPYGKFLLYNIGGASVWAAITVSLAYFLGRVVTIEQIIAWTTQFSWFALAAVVGMVGIYFVFHFLQKRFDQTIESTIGDRPQ | failed
14 | MGWFFVFCAAISEIVGVIGLKMYSKDKTLANGAIYIGGFATSFAFLYTSFLFLQVSVAYAVWIGIGTAGAVLLNMFLFGESKSKARIISVFLIVCGVTGLKALS | failed
